From US20240156870A1 (NATIONAL RESEARCH COUNCIL OF CANADA, published 2024)

Tests used:
[1] = biological target: T1, human EGFR, native, on the cell surface (human, UniProt P00533 25-1210); assay: Mirrorball microplate cytometry, adherent MDA-MB-468 cells
T1 construct: MCF7 is EGFR-low and serves as low-expression control; also called native cell-surface EGFR

[2] = biological target: recombinant 6xHis-tagged human EGFR ectodomain (human) (UniProt P00533); assay: SPR multi-cycle, VHH over amine-coupled EGFR ectodomain
[3] = biological target: recombinant human EGFRvIII ectodomain (human) (UniProt P00533); assay: SPR multi-cycle, VHH over amine-coupled EGFRvIII ectodomain
[4] = biological target: T2, human EGFR-Fc fusion protein (human, UniProt P00533 25-645); assay: SPR single-cycle, VHH over amine-coupled human EGFR-Fc
T2 construct: Bought; not shown: Fc part of the bought fusion

[5] = biological target: T3, recombinant 6xHis-tagged human EGFR ectodomain (human, UniProt P00533 25-645); assay: SPR multi-cycle, VHH over amine-coupled EGFR ectodomain
T3 construct: extracellular domain; Bought; also called recombinant human EGFR; EGFR extracellular domain; not shown: 6xHis tag

[6] = biological target: T3, recombinant 6xHis-tagged human EGFR …; assay: SPR (value of Table 2 repeated in Table 6)
Description: In the first SPR experiment, multi-cycle kinetic analyses were performed on a Biacore™ 3000 instrument (GE Healthcare) at 25° C. in HBS-EP buffer [10 mM HEPES, pH 7.4, containing 150 mM NaCl, 3 mM EDTA and 0.005% (w/v) surfactant P20]. […] An ethanolamine-blocked flow cell served as the reference. Monomeric VHHs at concentrations ranging from 0.1 to 100 nM were injected over the EGFR and EGFRvIII surfaces in HBS-EP buffer at a flow rate of 20 μL/min. […] Contact times were 180-300 s and dissociation times were 300-600 s.

[7] = biological target: T2, human EGFR-Fc fusion protein; assay: SPR, VHH over human EGFR-Fc;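 further: Single-cycle kinetics on Biacore T200 at 25 °C in HBS-EP, monomeric VHHs at 0.6–50 nM flowed over immobilized EGFR, 180 s association, 600 s dissociation, ethanolamine-blocked reference cell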
Description: In the second SPR experiment, single-cycle kinetic analyses were performed on a Biacore™ T200 instrument (GE Healthcare) at 25° C. in HBS-EP buffer. […] An ethanolamine-blocked flow cell served as the reference. Monomeric VHHs at concentrations ranging from 0.6 to 50 nM were injected over the EGFR surfaces in HBS-EP buffer at a flow rate of 40 μL/min. The contact time was 180 s and the dissociation time was 600 s. The EGFR surfaces were regenerated using a 10 s pulse of 10 mM glycine, pH 1.5.

[8] = biological target: T1, human EGFR, native, on the cell surface; assay: Mirrorball microplate cytometry, serial dilution, AF488 anti-human Fc; the cell line is not named in the legend of FIG. 5D (paragraph 463 treats it with the MDA-MB-468 assay of FIG. 5B)

Kd [3] [nM] | kon [3] [M⁻¹ s⁻¹] | Kd [5] [nM] | koff [5] [s⁻¹] | kon [5] [M⁻¹ s⁻¹] | Molecule | further results
 |  |  |  |  | EG2-Fc (Fc fusion) | EC50 [1]: 279 nM
14.6 | 1.2e+06 |  |  |  | EG2 VHH | Kd [2]: 19.1 nM; Kd [4]: 11.1 nM; kon [4]: 850000 M⁻¹ s⁻¹
4.9 | 180000 | 2.9 | 0.00073 | 250000 | NRC-sdAb024 (VHH, Monomeric llama VHH; also called EGFR4; not shown: C-terminal c-Myc and 6xHis tags) VHH: QVQLVESGGGLVQPGGSLRLSCAASGSSLYINAMTWYRQAPGEQREFVAIISRGGDTKYSDSVKGRFSISIDNAKNTVYLQMNSLKAEDTAVYYCNAVPPFPNWGQGTQVTVSS | koff [3]: 0.0009 s⁻¹
2.8 | 260000 | 1.7 | 0.00059 | 360000 | NRC-sdAb025 (VHH, Monomeric llama VHH; also called EGFR5; not shown: C-terminal c-Myc and 6xHis tags) VHH: QVQLVESGGGLVQPGGSLRLSCAASGSSLTINAMTWYRQAPGDEREFVAIVYRGGGTKYADSVKGRFSISIDNAKNTVYLQMNSLKAEDTAVYYCNAVPPFPNWGQGTQVTVSS | koff [3]: 0.00071 s⁻¹
40.4 | 240000 | 38.5 | 0.012 | 310000 | NRC-sdAb021 (VHH, Monomeric llama VHH purified from E. coli periplasm; also called EGFR1; not shown: C-terminal c-Myc and 6xHis tags) VHH: QVQLVESGGGLVQPGGSLRLSCSVSLSDFGSKHLAWHRQAPGKEREWVALIFSSGATNYANSVKGRFTISRDNSKNTVYLQMNSLKPEDTAVYYCNLVPPSPAWGQGTQVTVSS | Kd [6]: 38.5 nM; koff [3]: 0.0098 s⁻¹
25 | 270000 | 15.4 | 0.0056 | 360000 | NRC-sdAb026 (VHH, Monomeric llama VHH; also called EGFR6; not shown: C-terminal c-Myc and 6xHis tags) VHH: QVQLVESGGALVQPGGSLRLSCSASGVIFGINTLAWHRQAPGKEREWVALISNAGSTKYAGSVKGRFTISRDNDKNTVYLQMDSLKPEDTAVYYCNYVPPSPAWGQGTQVTVSS | koff [3]: 0.0068 s⁻¹
 |  |  |  |  | NRC-sdAb032-H1 (VHH, Humanized variant H1 of NRC-sdAb032) VHH: QVQLVESGGGLVQPGRSLRLSCSASGSISSISVMGWYRQAPGKGLELVARITSGGISNYVDSVKGRFTISRDSNSKNTLYLQMNSLRAEDTAVYYCYMYVHVGYWVDYWGQGTLVTVSS | Kd [7]: 16.6 nM; koff [7]: 0.01 s⁻¹; kon [7]: 620000 M⁻¹ s⁻¹
 |  |  |  |  | NRC-sdAb032-Fc (Fc fusion, Bivalent VHH-human IgG1 Fc fusion from HEK293-6E cells; also called homodimeric NRC-sdAb032-Fc; not shown: human IgG1 Fc) QVKLEESGGGLVQPGGSLRLSCSASGSISSISVMGWYRQAPGKQRELVARITSGGISNYVDSVKGRFTISGDSAKNIVYLQMNSLKPEDTAVYYCYMYVHVGYWVDYWGQGTQVTVSS | EC50 [8]: 0.9 nM; EC50 [1]: 0.5 nM
 |  |  |  |  | NRC-sdAb032/NRC-sdAb033-Fc (Fc fusion, Member of the group m26; also called NRC-sdAb032/033-Fc; biparatopic heterodimeric VHH/VHH-Fc) chain 1: QVKLEESGGGLVQPGGSLRLSCSASGSISSISVMGWYRQAPGKQRELVARITSGGISNYVDSVKGRFTISGDSAKNIVYLQMNSLKPEDTAVYYCYMYVHVGYWVDYWGQGTQVTVSS chain 2: QVQLVESGGGLVQPGGSLRLSCAASESIDSIYVMQWYRQAPEKPRDVVATLTPGGGSYYPEAVLGRFTISRDDAKNTVYLQMNSLKPEDTAVYYCNAFHRLRGTHYWGQGTQVTVSS | EC50 [8]: 1.8 nM
19.4 |  | 12.6 | 0.0057 | 460000 | NRC-sdAb023 (VHH, Monomeric llama VHH; also called EGFR3; not shown: C-terminal c-Myc and 6xHis tags) VHH: QVQLVESGGGLVQPGGSLRLSCTASGIIFSRNGVSWYRQAPGKEREFVAVITLSGTTTYKDSVKGRFTISRDNTRNTGYLQMNNLKPEDTAVYYCNLVPPTSYWGQGTQVTVSS | 
 |  |  |  |  | NRC-sdAb028-H1 (VHH, Humanized variant H1 of NRC-sdAb028) VHH: QVQLVESGGGVVQPGRSLRLSCTVSGSFFSRDAMGWHRQAPGKGLEMVAGISSGGLSNHAESVKGRFTISRDNSKNTLYLQMNSLRAEDTAVYYCSIYEDGVWTSWGQGTLVTVSS | Kd [7]: 6.2 nM; koff [7]: 0.00058 s⁻¹; kon [7]: 93000 M⁻¹ s⁻¹
 |  |  |  |  | NRC-sdAb032/NRC-sdAb028-Fc (Fc fusion, Member of the group m26; also called NRC-sdAb032/028-Fc; biparatopic heterodimeric VHH/VHH-Fc) chain 1: QVKLEESGGGLVQPGGSLRLSCSASGSISSISVMGWYRQAPGKQRELVARITSGGISNYVDSVKGRFTISGDSAKNIVYLQMNSLKPEDTAVYYCYMYVHVGYWVDYWGQGTQVTVSS chain 2: EVQLVESGGGLVQPGGSLRLSCTVSGSFFSRDAMGWHRQAPGKQREMVAGISSGGLSNHAESVKGRFTISRDNSKNTVYLQMNNLKPEDTAVYYCSIYEDGVWTSWGQGTQVTVSS | EC50 [8]: 2.1 nM
 |  |  |  |  | NRC-sdAb028-Fc (Fc fusion, Bivalent VHH-human IgG1 Fc fusion from HEK293-6E cells; not shown: human IgG1 Fc) EVQLVESGGGLVQPGGSLRLSCTVSGSFFSRDAMGWHRQAPGKQREMVAGISSGGLSNHAESVKGRFTISRDNSKNTVYLQMNNLKPEDTAVYYCSIYEDGVWTSWGQGTQVTVSS | EC50 [1]: 86 nM
 |  |  |  |  | NRC-sdAb033-H2 (VHH, Humanized variant H2 of NRC-sdAb033) VHH: QVQLVESGGGVVQPGRSLRLSCAASESIDSIYVMQWYRQAPGKGLEVVATLTPGGGSYYPDSVKGRFTISRDNSKNTLYLQMNSLRAEDTAVYYCNAFHRLRGTHYWGQGTLVTVSS | Kd [7]: 1.4 nM; koff [7]: 0.00026 s⁻¹; kon [7]: 200000 M⁻¹ s⁻¹
 |  |  |  |  | NRC-sdAb033-H1 (VHH, Humanized variant H1 of NRC-sdAb033) VHH: QVQLVESGGGVVQPGRSLRLSCAASESIDSIYVMQWYRQAPEKGLDVVATLTPGGGSYYPESVKGRFTISRDNSKNTLYLQMNSLRAEDTAVYYCNAFHRLRGTHYWGQGTLVTVSS | Kd [7]: 1.7 nM; koff [7]: 0.00022 s⁻¹; kon [7]: 130000 M⁻¹ s⁻¹
2.3 | 380000 | 1.6 | 0.00079 | 510000 | NRC-sdAb027 (VHH, Monomeric llama VHH; also called EGFR7; not shown: C-terminal c-Myc and 6xHis tags) VHH: QVKLEESGGGLVQPGGSLKLSCAVSGFAFERNGVSWYRQAPGKQREFVAVISSGTTTYKDSVKGRFTISRDNTRNTAYLQMNNLKPEDTAVYYCNLIPPTPYWGQGTQVTVSS | Kd [6]: 1.6 nM; koff [3]: 0.00086 s⁻¹
 |  |  |  |  | NRC-sdAb032/NRC-sdAb022-Fc (Fc fusion, Member of the group m26; also called NRC-sdAb032/022-Fc; biparatopic heterodimeric VHH/VHH-Fc) chain 1: QVKLEESGGGLVQPGGSLRLSCSASGSISSISVMGWYRQAPGKQRELVARITSGGISNYVDSVKGRFTISGDSAKNIVYLQMNSLKPEDTAVYYCYMYVHVGYWVDYWGQGTQVTVSS chain 2: QVQLVESGGGLVQPGGSLKLSCAVSGFAFERNGVSWYRQAPGKQREFVAVISSGTTTYKDSVKGRFTISRDNTRNTAYLQMNNLKPEDTAVYYCNLVPPTPYWGQGTQVTVSS | EC50 [8]: 1.6 nM
 |  |  |  |  | NRC-sdAb022-Fc (Fc fusion, Bivalent VHH-human IgG1 Fc fusion from HEK293-6E cells; not shown: human IgG1 Fc) QVQLVESGGGLVQPGGSLKLSCAVSGFAFERNGVSWYRQAPGKQREFVAVISSGTTTYKDSVKGRFTISRDNTRNTAYLQMNNLKPEDTAVYYCNLVPPTPYWGQGTQVTVSS | EC50 [1]: 67 nM
 |  |  |  |  | NRC-sdAb033-Fc (Fc fusion, Bivalent VHH-human IgG1 Fc fusion from HEK293-6E cells; not shown: human IgG1 Fc) QVQLVESGGGLVQPGGSLRLSCAASESIDSIYVMQWYRQAPEKPRDVVATLTPGGGSYYPEAVLGRFTISRDDAKNTVYLQMNSLKPEDTAVYYCNAFHRLRGTHYWGQGTQVTVSS | EC50 [1]: 49 nM
